We go through five molecules from patent US20250129148A1 (ONCOONE RESEARCH AND DEVELOPMENT, published 2025).

For experiment [1], the target named is T1, oxMIF (recombinant human MIF immobilized into ELISA plates, transforming MIF to oxMIF) (human, UniProt P14174 2-115).
T1 construct: Oxidised conformational isoform produced by coating the plate at 1 ug/ml in PBS overnight; also called immobilized MIF (oxMIF); immobilized oxMIF
The experiment can be described thus: ELISA on immobilized MIF (oxMIF), 4-parameter fit. As for the experimental part:
(§1) Recombinant human MIF diluted in PBS at 1 μg/ml was immobilized into ELISA plates overnight at 4° C. (transforming MIF to oxMIF according to Thiele et al., 2015). After blocking, serial dilutions of anti-oxMIF antibodies were added to the plates. Finally, bound antibodies were detected using a Goat anti-human IgG (Fc)-HRP conjugate and tetramethylbenzidine (TMB) as substrate. The chromogenic reaction was stopped with 3M H₂SO₄ and OD was measured at 450 nm. Data from different experiments were normalized to the maximal OD of the anti-oxMIF antibody C0008 (=100%) of the respective experiment and EC₅₀ values were determined by 4-parameter fit using GraphPad Prism (and the mean+/−SEM of two experiments is shown).
Materials and Methods: Recombinant human MIF diluted in PBS at 1 μg/ml was immobilized into ELISA plates overnight at 4° C. (transforming MIF to oxMIF according to Thiele et al., 2015). After blocking, serial dilutions of antibodies were added to the plates, and ELISA was performed as described in the Example 3.
(In an ELISA, binding on a coated surface is turned into a signal by an enzyme label.)

Experiment [2] addresses T1, oxMIF (recombinant human MIF …). As to the kind of experiment: ELISA on immobilized MIF (oxMIF); EC50 of 4-parameter fit given as apparent KD. As for the experimental part:
as §1
Anti-oxMIF antibodies were detected by an anti-human-IgG (Fc)-HRP conjugate, C0008 was used as reference antibody. EC₅₀ values were determined by sigmoidal, 4-parameter equation using GraphPad Prism (mean+/−SEM of two experiments is shown)

Where a chain is given by its changes, count along the chain named.

As usually defined, the EC50 is the concentration that produces a half-maximal response.

T1 sequence (P14174 2-115 limits assumed): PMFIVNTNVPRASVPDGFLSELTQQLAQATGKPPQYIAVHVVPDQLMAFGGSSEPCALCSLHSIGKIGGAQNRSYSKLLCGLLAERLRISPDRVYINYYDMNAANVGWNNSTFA

B1: C0008 (control/reference anti-oxMIF antibody) (antibody, human IgG1, kappa, V domains shown)
VH: EVQLLESGGGLVQPGGSLRLSCAASGFTFSIYSMNWVRQAPGKGLEWVSSIGSSGGTTYYADSVKGRFTISRDNSKNTLYLQMNSLRAEDTAVYYCAGSQWLYGMDVWGQGTTVTVSS
VL: DIQMTQSPSSLSASVGDRVTITCRSSQRIMTYLNWYQQKPGKAPKLLIFVASHSQSGVPSRFRGSGSETDFTLTISGLQPEDSATYYCQQSFWTPLTFGGGTKVEIKR
notes: Human IgG1 with wt Fc; also called control antibody
With B1, in experiment [1], the EC50 stood at 0.158 nM. For the same molecule, the Kd in experiment [2] was 0.19 nM.

B2: C0115 (Fc silenced anti-oxMIF antibody) (antibody, human IgG1, kappa, L234A L235A, V domains shown)
VH: B1 VH with L5Q, W101Y
VL: B1 VL with F49Y, A51G, W93F
As for B2, the Kd in experiment [2] came to 0.28 nM.

B3: C0118 (Fc silenced anti-oxMIF antibody) (antibody, human IgG1, kappa, L234A L235A, V domains shown)
VH: B1 VH with L5Q, W101Y
VL: B1 VL with M30L, F49Y, A51G, P80S, W93F
B3: the Kd in experiment [2] came to 0.26 nM.

B4: C0132 (Fc silenced anti-oxMIF x anti-HSG bispecific antibody, Fab/scFv-Fc) (bispecific antibody, human IgG1, kappa, L234A L235A)
heavy: not shown
chain: EVQLVESGGDLVKPGGSLKLSCAASGFTFSIYTMSWLRQTPGKGLEWVATLSGDGDDIYYPDSVKGRFTISRDNAKNSLYLQMNSLRAEDTALYYCARVRLGDWDFDVWGQGTTVSVSSGGSGGSGGSGGSGGSDIVMTQSPSSLAVSPGERVTLTCKSSQSLFNSRTRKNYLGWYQQKPGQSPKLLIYWASTRESGVPDRFSGSGSGTDFTLTINSLQAEDVAVYYCTQVYYLCTFGAGTKLELKGGGGSDKTHTCPPCPAPEAAGGPSVFLFPPKPKDTLMISRTPEVTCVVVDVSHEDPEVKFNWYVDGVEVHNAKTKPREEQYNSTYRVVSVLTVLHQDWLNGKEYKCKVSNKALPAPIEKTISKAKGQPREPQVCTLPPSRDELTKNQVSLSCAVKGFYPSDIAVEWESNGQPENNYKTTPPVLDSDGSFFLVSKLTVDKSRWQQGNVFSCSVMHEALHNHYTQKSLSLSPG
light: DIQMTQSPSSLSASVGDRVTITCRSSQRIMTYLNWYQQKPGKAPKLLIYVGSHSQSGVPSRFRGSGSETDFTLTISGLQPEDSATYYCQQSFFTPLTFGGGTKVEIKRTVAAPSVFIFPPSDEQLKSGTASVVCLLNNFYPREAKVQWKVDNALQSGNSQESVTEQDSKDSTYSLSSTLTLSKADYEKHKVYACEVTHQGLSSPVTKSFNRGEC
notes: One anti-oxMIF arm only; also called bsMab C0132
Regarding B4, the EC50 in experiment [1] was found to be 2.51 nM.

B5: C0133 (Fc silenced anti-oxMIF x anti-HSG bispecific antibody, Fab/Fab-scFv-Fc) (bispecific antibody, human IgG1, kappa, L234A L235A)
heavy: not shown
chain: EVQLQESGGGLVQPGGSLRLSCAASGFTFSIYSMNWVRQAPGKGLEWVSSIGSSGGTTYYADSVKGRFTISRDNSKNTLYLQMNSLRAEDTAVYYCAGSQYLYGMDVWGQGTTVTVSSASTKGPSVFPLAPSSKSTSGGTAALGCLVKDYFPEPVTVSWNSGALTSGVHTFPAVLQSSGLYSLSSVVTVPSSSLGTQTYICNVNHKPSNTKVDKKVEPKSCGGGGSGGGGSEVQLVESGGDLVKPGGSLKLSCAASGFTFSIYTMSWLRQTPGKGLEWVATLSGDGDDIYYPDSVKGRFTISRDNAKNSLYLQMNSLRAEDTALYYCARVRLGDWDFDVWGQGTTVSVSSGGSGGSGGSGGSGGSDIVMTQSPSSLAVSPGERVTLTCKSSQSLFNSRTRKNYLGWYQQKPGQSPKLLIYWASTRESGVPDRFSGSGSGTDFTLTINSLQAEDVAVYYCTQVYYLCTFGAGTKLELKGGGGSGGGGSKTHTCPPCPAPEAAGGPSVFLFPPKPKDTLMISRTPEVTCVVVDVSHEDPEVKFNWYVDGVEVHNAKTKPREEQYNSTYRVVSVLTVLHQDWLNGKEYKCKVSNKALPAPIEKTISKAKGQPREPQVCTLPPSRDELTKNQVSLSCAVKGFYPSDIAVEWESNGQPENNYKTTPPVLDSDGSFFLVSKLTVDKSRWQQGNVFSCSVMHEALHNHYTQKSLSLSPG
light: B4 light
notes: also called bsMab C0133
As for B5, the EC50 in experiment [1] is 0.242 nM.
